Test results: patent US20100092522A1 (published 2010)

Key:
[1] = target: T1, HLA-A0201 molecule on T2 cells (TAP-, HLA-A0201+) (human); assay: T2 thermostabilization assay, flow cytometry of surface HLA-A2 (BB7.2), fluorescence index; native peptide as reference
T1 construct: MHC class I molecule without a defined peptide; also called HLA-A2.1
Procedure: (§1) T2 cells (TAP⁻, HLA-A0201⁺) were incubated overnight at 27° C. at a concentration of 1×10⁶ cells/ml in FCS-free RPMI medium supplemented with 5 μg/ml human β₂m (Sigma, St Louis, Mo.) in the absence (negative control) or presence of either a positive reference tyrosinase peptide or test peptides at various final concentrations (50, 10, 1, and 0.1 micrograms (μg)/ml). Following a 4-hour incubation with 5 μg/ml brefeldin A (Sigma), T2 cells were labeled for 30 minutes at 4° C. with a saturating concentration of anti-HLA-A2.1 (BB7.2) mAb, then washed twice. Cells were then incubated for 30 minutes, 4° C. with a saturating concentration of FITC-conjugated goat IgG F(ab′)2 anti-mouse Ig (Caltag, San Francisco, Calif.), washed twice, fixed in PBS/1% paraformaldehyde and analyzed using a FACS Calibur® cytofluorometer (Becton Dickinson, Immunocytometry Systems, San Jose, Calif.).
(§2) Following initial evaluation of peptide binding at time 0, cells were washed in RPMI complete medium to remove free peptides and incubated in the continuous presence of 0.5 μg/ml brefeldin-A for 2, 4, 6 or 8 hours.

[2] = target: T1, HLA-A0201 molecule on T2 cells (TAP-, …); assay: T2 thermostabilization assay, flow cytometry of surface HLA-A2 (BB7.2), fluorescence index
Procedure: as §1, §2

[3] = target: T2, HLA-A0301 molecule on Raji HLA-A0301 cells (human); assay: thermostabilization assay on Raji HLA-A0301 cells, fluorescence index
T2 construct: It says only 'thermostabilization assays using; Raji HLA-A0301 cells'

[4] = target: T1, HLA-A0201 molecule on T2 cells (TAP-, …); assay: T2 stabilization assay of Example 1, as told in the description
Procedure: as §1, §2

Row | binding result [3] | Binder | other results
1 |  | NLGATLKGV [WT1 D (native)] | binding result [1]: binds
2 |  | YLGATLKGV [WT1 D1 (analogue)] | binding result [2]: binds
3 | binds | QMNLGATLK [A3 WT1 B (native)] | 
4 | binds | QMYLGVTLK [A3 WT1 B3 (analogue)] | 
5 | binds | QMNLGVTLK [A3 WT1 B2 (analogue)] | 
6 | binds | QMYLGATLK [A3 WT1 B1 (analogue)] | 
7 |  | SLGEQQYSV [WT1 B (native)] | binding result [1]: binds
8 |  | YLGEQQYSV [WT1 B1 (analogue)] | binding result [2]: binds
9 | binds | KLSHLQMHSR [A3 WT1 D (native)] | 
10 | binds | KLSHLQMHSK [A3 WT1 D2 (analogue)] | 
11 | binds | KLYHLQMHSR [A3 WT1 D1 (analogue)] | 
12 | binds | KLYHLQMHSK [A3 WT1 D3 (analogue)] | 
13 |  | ALLPAVPSL [WT1 C (native)] | binding result [1]: binds
14 |  | YLLPAVPSL [WT1 C1 (analogue)] | binding result [4]: binds
15 | binds | NMHQRNMTK [A3 WT1 A (native)] | 
16 | binds | NMHQRVMTK [A3 WT1 A2 (analogue)] | 
17 | binds | NMYQRNMTK [A3 WT1 A1 (analogue)] | 
18 | binds | NMYQRVMTK [A3 WT1 A3 (analogue)] | 
19 |  | RMFPNAPYL (also called WT1A (126-134)) [WT1 A (native)] | binding result [1]: binds
20 |  | YMFPNAPYL [WT1 A1 (analogue)] | binding result [2]: binds
21 | binds | FMCAYPGCNK [A3 WT1 C (native)] | 
22 | binds | FMYAYPFCNK [A3 WT1 C3 (analogue)] | 
23 | binds | FMYAYPGCNK [A3 WT1 C1 (analogue)] | 
24 | binds | FMCAYPFCNK [A3 WT1 C2 (analogue)] | 
